Results: paper PMC11964753 (Molecules and Cells, 2025)
“And” between values parts separate entries of the source, which are not always exact repeats. Equal entries are not always repeated.

Target: the molecule itself
Experiment: cryo-EM structure

B1: mouse bestrophin 1 with a C-terminal tandem tag of BRIL and 3X Flag (mBEST1-BRIL-3xFLAG) (natural protein, UniProt O88870 1-551, looked up)
chain: MTITYTNKVANARLGSFSSLLLCWRGSIYKLLYGEFLVFIFLYYSIRGLYRMVLSSDQQLLFEKLALYCDSYIQLIPISFVLGFYVTLVVSRWWSQYENLPWPDRLMIQVSSFVEGKDEEGRLLRRTLIRYAILGQVLILRSISTSVYKRFPTLHHLVLAGFMTHGEHKQLQKLGLPHNTFWVPWVWFANLSMKAYLGGRIRDTVLLQSLMNEVCTLRTQCGQLYAYDWISIPLVYTQVVTVAVYSFFLACLIGRQFLNPNKDYPGHEMDLVVPVFTILQFLFYMGWLKVAEQLINPFGEDDDDFETNWIIDRNLQVSLLSVDGMHQNLPPMERDMYWNEAAPQPPYTAASARSRRHSFMGSTFNISLKKEDLELWSKEEADTDKKESGYSSTIGCFLGLQPKNYHLPLKDLKTKLLCSKNPLLEGQCKDANQKNQKDVWKFKGLDFLKCVPRFKRRGSHCGPQAPSSHPTEQSAPSSSDTGDGPSTDYQEICHMKKKTVEFNLNIPESPTEHLQQRRLDQMSTNIQALMKEHAESYPYRDEAGTKPVLYE
Question: With B1 as the protein, how does the “stoichiometry N” value read?
Answer: The value was 5 and 10.
